experiment: soluble on expression in E. coli; label from the status in PepcDB or PDB records

Sequence	soluble on expression in E. coli
MKQADELRFNEDGLIPAIVQDAASKEVLTLAYMNKESYEKTLETKETWFYSRSRQALWHKGETSGNTQAVKGIRYDCDQDALLVLVEPSGPACHTGSYSCFTKEQTEEQAADRFGIMNELERVIAERQAEMPEGAYTTYLFREGVDKILKKVGEEASEVIIAAKNRDHEELKWEAADLLYHLLVLLREQSLPLDDVLDVLKKRHSEIEELEHHHHHH	not soluble
MKQITGVYTAPRPHWVGDGFPVRSLFSYQSHAQQLSPFLLLDYAGPHTFTPGNEKRGVGEHPHRGFETVTIVYSGEVEHRDSTGRGGVIGPGDVQWMTAGAGILHEEFHSDAFTRRGGELEMVQLWVNLPMKDKMTTPGYQSITHDVIPTVTLPDNAGVVRVIAGRYEETKGPAHTFSPLNVWDMRLQRNRQLTLAQPEGWSTALVVLKGNITVNGTTPVNEAQLVVLSQQGKTLHLEASSDASVLLLSGEPLNEPIVGYGPFVMNTKQEIAEAVRDFNSGRFGQI	not soluble
MKQRILIVGAGFAGMWSALSAVRQLDRQGRDDVEVAVLAPQPELRIRPRFYEPDVQRMAAPLGELFAAVGVRFVQGSAQRIDVAGKRVEYRDAEGTLAQLDYDRLVLAAGSGVWRPASVAGIDAAFDVDQLEDALRLEAHLHALRDLPDSPARNTVVVAGGGFTGIETATEMPARLRAILGEKAALRVIVVDRGAAIGASMGADLSGLIAEASAELGVEWCLGRSVAAVDAEGVTLDDGQRIEAKTVVWTVGVRASTLTGQIPGERDAQGRLHVDRNLKVLGLDDVYATGDVARAATDDLGNHALMTCQHAIALGRSAGNNVAADLLGVEPIPYSQVKYVTCLDLGGWGAVFTEGWDRQVRFVREEGKKIKTEINGVWIYPPAADRAVALAAADPLIPVVALEHHHHHH	soluble
MKRFNDFSKMKAFKDAQEHGKNRYKDVGCLDNNRVKLGGAWPHEYIHANYVSTPTNPKRFICTQAPLEKTCADFWFMCLQDRVETIFMLCNYKEKGAKKCHEYLPTEDNKDTMSFKEKGQKVTVKFESSKAIKFRDNSAAKVTKTVLTVEGAGCDKLKVNHYHWIDWPDRGVPTADNAILELLEKARVSKGPIAVHCSAGIGRTGSVVMLEYVMDQLLAGQIIEDTDKIIQKIREQRNNSVQTDHQYLFVHQVMMNFFEKRGLLDEATSAIHKDFTDQYSKCVL	not soluble
MKRGKQTCKILKDIRRQIAEANDIEFITSECQYQGDCLGTCPKCEAEVRYLEQQLERKRMAGKAITILGISAGLVAMAPMTSCSSSPNKGTNQETISDSTNASVMFGEICPTPVEDTIPMVEKDTVNKQELPELPQEMGLIEITPISGDIITVKDSLSEKDSLTDVLEVAAVMPEFPGGARELMKFISANIRYPSMSQGGVCQGRAIVQFIVDKEGNIVQPKVVRGVDPYLDKEALRVVGLMPKWKPGELDDGTKVAVRFTIPVMFRLQ	not soluble
MKRIILSIVWGLLTGWAAVPCLWAQSRTGTADREIWVKTLVRLADPVLSNLANETLKKEMPYESLAPNRQRFSYLEAVGRTVCGIAPWLELGEDDTPEGQLRKKYIELTVKGISNAVNPSSPDYLIFGEPSQPLVDAAFLAEGLLRAPKQLWGNLSPAARKQVVTELKRSRVIKPNESNWLLFASIVEAALQEFTGECDTTRLNYGVRKFRDLWYKGDAQYGDGAEFHLDYYNSFVIHPMLTDVLVVMQKHRMPESEFLNVQQKRLGRYAEQLERFISPEGTYPVIGRSIVYRTGVFHALGQAALLHLLPQQIVPAQVRCGMTKVIENQFRSAANFDTKGWLKIGFSGNQVQMSESYINTGSTYLCLTGFLPLGLPADDPFWSAPPAEWTNLKAWSGKEMPADHSLLEHHHHHH	not soluble
MKRIVVKVGSHVISEENTLSFERLKNLVAFLAKLMEKYEVILVTSAAISAGHTKLDIDRKNLINKQVLAAIGQPFLISVYNELLAKFNKLGGQILLTGKDFDSRKATKHAKNAIDMMINLGILPIINENDATAIEEIVFGDNDSLSAYATHFFDADLLVILSDIDGFYDKNPSEFSDAKRLEKITHIKEEWLQATIKTGSEHGTGGIVTKLKAAKFLLEHNKKMFLASGFDLSVAKTFLLEDKQIGGTLFE	soluble
MKRKSKAGGASDKSKSPKLKKRRSVVLEPIHISPKYLEDKFKTEFKKGFEKSNGPFPHWQLRNFVDNSDNVVEKIEDELQNFEGWKRKENDLYSLYQSDDLKSINPVENPAVFSFRQFLYKEVKEWLQNVSGVELTEQVDCNGSCYARTDSLLPHNDLIETRRFAFVYYITSADWDSEVNGGDLQLFNHDKKLQPTSVAAQFSPLRNSFMLFEVSEKSWHRVAEMLSEEPRLSINGWFHSTRRIEPKKPAVEAIQRFVPEAACKLSKLISKEYLQKERQDEVQQTFADSSELNLSKFIFEEIHDNAYSELISNPSCFETVGPVSKRHVARLDEEKSADLQNTKRIIQCLKSKNFAKLAAKLTGVTVTGAQTSVKVSRVEHGTYWVLGDEDAEQSSTDGYCLDVHLFVQKTNWDDEAGGDLIYIEEGDTEELLRISPSPNAASIVFREPGVISFMKYANCKSSDPFFLFTVSFYNVQVVED	not soluble
MKRKTKIVSTIGPASESVDKLVQLMEAGMNVARLNFSHGDHEEHGRRIANIREAAKRTGRTVAILLDTKGPEIRTHNMENGAIELKEGSKLVISMSEVLGTPEKISVTYPSLIDDVSVGAKILLDDGLISLEVNAVDKQAGEIVTTVLNGGVLKNKKGVNVPGVKVNLPGITEKDRADILFGIRQGIDFIAASFVRRASDVLEIRELLEAHDALHIQIIAKIENEEGVANIDEILEAADGLMVARGDLGVEIPAEEVPLIQKLLIKKSNMLGKPVITATQMLDSMQRNPRPTRAEASDVANAIFDGTDAVMLSGETAAGQYPVEAVKTMHQIALRTEQALEHRDILSQRTKESQTTITDAIGQSVAHTALNLDVAAIVTPTVSGKTPQMVAKYRPKAPIIAVTSNEAVSRRLALVWGVYTKEAPHVNTTDEMLDVAVDAAVRSGLVKHGDLVVITAGVPVGETGSTNLMKVHVISDLLAKGQGIGRKSAFGKAVVAKTAEEARQKMVDGGILVTVSTDADMMPAIEKAAAIITEEGGLTSHAAVVGLSLGIPVIVGVENATTLFKDGQEITVDGGFGAVYRGHASVL	soluble
MKRLDKKEALDLLHHASLTELGEMAYKRKLELHPEKITTFVVDRNINYTNVCCIDCSFCAFYRHHKEDDAYILSFEEIGKKIEELEAIGGTQILFQGGVHPKLKIEWYEELVSWIKEHYPNITVHGFSAVEIAYIAKASKISITEVLKRLQAKGLFSIPGAGAEVLSDRVRDIIAPNKCDTATWLEVHRQAHKIGMKSTATMMFGTVENDEEIIDHFEHLRKLQDETGGFRAFILWSFQSDNTALIQKHPEIMKQSSNKYLRLLALVRLYLDNFKNLQSSWVTQGSLIGQLALKFGANDLGSTMMEENVVSAAGASYRMNQDEMIRLIRSLGENPAKRNTAYEILERFLEHHHHHH	not soluble
MKRPDYRTLQALDAVIRERGFERAAQKLCITQSAVSQRIKQLENMFGQPLLVRTVPPRPTEQGQKLLALLRQVELLEEEWLGDEQTGSTPLLLSLAVNADSLATWLLPALAPVLADSPIRLNLQVEDETRTQERLRRGEVVGAVSIQHQALPSCLVDKLGALDYLFVSSKPFAEKYFPNGVTRSALLKAPVVAFDHLDDMHQAFLQQNFDLPPGSVPCHIVNSSEAFVQLARQGTTCCMIPHLQIEKELASGELIDLTPGLFQRRMLYWHRFAPESRMMRKVTDALLDYGHKVLRQD	soluble
MKRSIKHIYLLSDATGETVERVVRAALSQFRDVEARFHRVTRIRSREDVIWALEEVLREPGMVVYTLVDTELAQLLRDEAEAHGLDAIDLISPLLFKLSDFFGEAPQKEPGLLHQINSEYHKRVDAVDFTVKHDDGQDPRGLAKADFILVGVSRSSKTPLSMYLAHKGYKVANVPIVKGIDPPPELYKVDQKRVVGLIIDAERLVQIRTARLRNLGQMPKGSYADYERIEEELEFCRRLYRRNPQWLVIDVTKKSVEESAAEIIQKLAGLEHHHHHH	not soluble
MKRYTPDFPEMMRLCEMNFSQLRRLLPRNDAPGETVSYQVANAQYRLTIVESTRYTTLVTIEQTAPAISYWSLPSMTVRLYHDAMVAEVCSSQQIFRFKARYDYPNKKLHQRDEKHQINQFLADWLRYCLAHGAMAIPVY	not soluble
MKSADLIIIGGGMVGLALAGLLKDSPCQIKIIEKSAPKTQKYYANRVSAINTASEKMLQQLGVFEHIPTDAYTDYQKIIVSEKDSFAKIEFDNNDLAIKQLGLTQLGLIIANSQLQQALWQQVSQQKNVEIILSTPKTIGISESGAFLTLENGEMLAGKLVVGADGAHSWLRNQINIPLISQDYQQTALVCCVETAEPHNNIARQIFGPDSILAFLPLADKNQCSIVWSLPPDQANKLTTCDEQQFNQALTIAFDYQLGLVKLQDSRKIYPLTARYARDFAQMRIALIGDAAHTIHPLAGLGVNLGFADAITLAEQIKLHLAAAHDIGEYRHLRYFERTRKTETIKLLAAMEGLKQLFSGNNPLKKLIRGIGLVGTNHFSAIKKRLIEQVVNILEHHHHHH	soluble
MKSEIIAVGTEILTGQIVNTNSQFLSEKFAELGIDVYFQTAVGDNEERLLSVLKIAKERSDLIVLCGGLGPTEDDLTKQTLAKFLKRELVFDKTAQERLDEFFASRPTSMRTPNNECQAQIIAGSQPLSNKTGLAVGGLLEADGVTYVVLPGPPSELKPMVNKELLPYLSKTSEKLYSRVLRFFGIGESHLVTLLHDLIAEQTDPTIAPYAKTGEVTIRLSTKAHRQKEADSKLDKLEKKIITIDNLADYFYGYGEENSLPQVVFDLLKEKGKTITAAESLTAGLFQARLADFAGASDIFKGGFITYSIEEKARMLGIPFEDLQLHGVVSAFTAEKMAERSRQLTQADLAISLTGVAGPDSLEGQPAGTVFIGLSSSKRTMAIKVLIGGRSRSDVRYIAVLHAFNLVRQTLLSHKNLV	soluble
MKSFLVAGCTSDAGKSVVVAGLCRALTRRGLRVAPFKAQNMSNNSAVTPDGGEIGRAQALQAYACGLTPSVDFNPILLKPGSDRTSQLVVRGIATGNVSARSYIEHRTELRKIASESLNSLRERFDVVVCEGAGSPAETNLRATDVANFGLAEECDLPVYIVGDIDRGGVLAHFYGTHQIVDDADRARIKGFVVNKFRGDVSILEPGLQDLEDRLGVPTVAVLPFIHGLWIDAEDSLQSTIGATVGPAAAPLGTQRLRVAAIRLPRVSNATDVEALACEPGVTVTWTVDPDSVAEADLVVIPGSKATLSDLAWLRSTGVADAIMERARSQRPILGICGGFQMMCSHIDDPVESGSTTPVEGLGIFDVDIEFHPEKTLIRHENGGYEVHHGRVERSTEQPWIGNEGARTQSNFGTHRHGYLEDDEARRDFLGTVSTLAQRPGFVVAPATSFEAERNKQLDVIADAIEQHWDLDQLIAALT	not soluble
MKSFVLFALFSVAAAQFGGYGRGRGGPGGPGGFEGGPAGAGGFQGNGAGELTYEAKGRLICGLTGVDKVRVVLWDRFRGRENIIYDETNTDVVGNFRLRATRNGFDGNLIQPFLTIYHDCDDASTPGLRKMTVQLPPQYTNQGSLALKSFDIGTWNLETSFAGEELEIQNGGLGGRPIGGSSFGQGNRGQFGGNREIFAHGGRSDFGDSSISV	not soluble
MKSGVIPSSAVGQKINEWYRYIRTFSVPDAEVLKAEIQQELKHMQHDSNLLLYYSLMEFRHQLMLDYLEPLEKLNIEDQPSLSELSRNIDSNQADLKGLLDYYVNFFRGMYEFDKREFISAITYYKQAEKKLSFVADHIERAEFYFKIAEAYYYMKQTYFSLINIKNAYEIYVEQETYNVRIIQCHFVFGVNLMDERNFEQAARHFKLALNMAQAEQKAQLVGRAYYNLGLCYYNQDLLDPAIDYFEKAVSTFESSRIVNSLPQAYFLITLIYYKQGKHDKASEYHKRGYEYAKETDDADYAVKFEFLQSLYLDQPNEEGIERCFQYLKNKNMYADIEDLALEVAKYYYEQKWFKLSASYFLQVEEARKQIQRSEGLYEIEI	soluble
